In this test the target is thermostable exoshell tES(+)F116H. Description: AUC.

On to “horseradish peroxidase (from UniProt P00433 31-338) (enzyme)”, for which the stoichiometry N (HRP molecules per tES shell) amounted to 2.

(Values after PMC9333347.)
